This assay concerns the target EpCAM (epithelial cell adhesion molecule) on cells (UniProt P16422). The assay can be described thus: cell-based or functional assay.
Sequence of UniProt P16422 (P16422 24-314 limits assumed): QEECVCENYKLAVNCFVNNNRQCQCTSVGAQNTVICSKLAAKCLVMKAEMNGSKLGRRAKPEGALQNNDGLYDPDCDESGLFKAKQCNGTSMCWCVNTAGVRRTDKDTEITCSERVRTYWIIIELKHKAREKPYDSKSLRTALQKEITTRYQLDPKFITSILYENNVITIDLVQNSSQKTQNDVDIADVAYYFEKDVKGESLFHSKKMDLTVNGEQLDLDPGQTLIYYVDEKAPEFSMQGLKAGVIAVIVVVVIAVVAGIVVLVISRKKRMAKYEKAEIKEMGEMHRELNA

B1: EpCAMscFv-HveA adapter (fused protein of scFv for EpCAM and HveA82 extracellular domain of HVEM) (protein)
chain: DIQMTQSPSSLSASVGDRVTITCRSTKSLLHSNGITYLYWYQQKPGKAPKLLIYQMSNLASGVPSRFSSSGSGTDFTLTISSLQPEDFATYYCAQNLEIPRTFGQGTKVELKRATPSHNSHQVPSAGGPTANSGTSGSEVQLVQSGPGLVQPGGSVRISCAASGYTFTNYGMNWVKQAPGKGLEWMGWINTYTGESTYADSFKGRFTFSLDTSASAAYLQINSLRAEDTAVYYCARFAIKGDYWGQGTLLTVSSGGGGSEFLPSCKEDEYPVGSECCPKCSPGYRVKEACGELTGTVCEPCPPGTYIAHLNGLSKCLQCQMCDPAMGLRASRNCSRTENAVCGHHHHHH
For the molecule B1, the cell viability of BT-474 cells 5 days after infection with EADa-S virus came out at 34%, the cell viability of MCF-7 cells 5 days after infection with EADa-S virus amounted to 31% and the cell viability of MDA-MB-453 cells 5 days after infection with EADa-S virus came out at 19%.

The values above are taken from US20220305066A1.
